T1: human VPAC2 receptor (human, UniProt P41587 24-438)
T1 sequence (looked up): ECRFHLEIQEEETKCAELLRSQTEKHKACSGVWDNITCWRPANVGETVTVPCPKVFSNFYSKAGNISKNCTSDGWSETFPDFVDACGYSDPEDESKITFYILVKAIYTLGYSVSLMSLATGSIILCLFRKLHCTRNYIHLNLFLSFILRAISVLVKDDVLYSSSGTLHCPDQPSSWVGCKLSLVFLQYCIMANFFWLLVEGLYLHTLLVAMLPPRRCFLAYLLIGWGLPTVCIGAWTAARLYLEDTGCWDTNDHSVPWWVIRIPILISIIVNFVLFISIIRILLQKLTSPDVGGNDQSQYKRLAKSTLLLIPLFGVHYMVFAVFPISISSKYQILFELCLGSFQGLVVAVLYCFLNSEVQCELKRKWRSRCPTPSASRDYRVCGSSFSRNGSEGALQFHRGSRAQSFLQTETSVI

B1: P111 (peptide)
peptide: Hexanoyl-HSDAVFTDNYTRLRKQVAAKKYLQSYKNKRYGGPSSGAPPPS
B2: P124 (peptide)
peptide: Hexanoyl-HSDAVFTDNYTRLRKQVAAKKYLQQIKNKRYGGPSSGAPPPS
B3: P176 (peptide)
peptide: Hexanoyl-HSDAVFTDNYTRLRRQVAAKKYLQSIKNKRYGGPSSGAPPPS
B4: P132 (peptide)
peptide: Hexanoyl-HSDAVFTDNYTRLRKQVAAKKLLQSIKNKRYGGPSSGAPPPS
B5: P151 (peptide)
peptide: Hexanoyl-HSDAVFTDNYTRLRKQVAALKYLQSIKNKRYGGPSSGAPPPS
B6: P162 (peptide)
peptide: Hexanoyl-HSDAVFTRNYTRLRKQVAAKKYLQSIKNKRYGGPSSGAPPPS
B7: P141 (peptide)
peptide: Hexanoyl-HSDAVFTDNYTRLKAQVAAKKYLQSIKNKRYGGPSSGAPPPS
B8: P160 (peptide)
peptide: Hexanoyl-HSDAVFTKNYTRLRKQVAAKKYLQSIKNKRYGGPSSGAPPPS
B9: P142 (peptide)
peptide: Hexanoyl-HSDAVFTDNYTRLRAQLAAQKYLQSIKNKRYGGPSSGAPPPS
B10: P174 (peptide)
peptide: Hexanoyl-HSDAVFTDNYTRLLKQVAAKKYLQSIKNKRYGGPSSGAPPPS
B11: P117 (peptide)
peptide: Hexanoyl-HSDAVFTDNYTRLRKQVAAKKYLQWIKNKRYGGPSSGAPPPS
B12: P138 (peptide)
peptide: Hexanoyl-HSDAVFTDNYTRLRAQVAAQKYLQSIKNKRYGGPSSGAPPPS
B13: P139 (peptide)
peptide: Hexanoyl-HSDAVFTDNYTRLRAQVAAKKYLQSIKNKRYGGPSSGAPPPS
B14: P175 (peptide)
peptide: Hexanoyl-HSDAVFTDNYTRLFKQVAAKKYLQSIKNKRYGGPSSGAPPPS
B15: P146 (peptide)
peptide: Hexanoyl-HSDAVFTDNYTRLRKQVAAVKYLQSIKNKRYGGPSSGAPPPS
B16: P147 (peptide)
peptide: Hexanoyl-HSDAVFTDNYTRLRKQVAAYKYLQSIKNKRYGGPSSGAPPPS
B17: P152 (peptide)
peptide: Hexanoyl-HSDAVFTDNYTRLRKQVAATKYLQSIKNKRYGGPSSGAPPPS
B18: P129 (peptide)
peptide: Hexanoyl-HSDAVFTDNYTRLRKQVAAKKWLQSIKNKRYGGPSSGAPPPS
B19: P153 (peptide)
peptide: Hexanoyl-HSDAVFTDNYTRLRKQVAAWKYLQSIKNKRYGGPSSGAPPPS
B20: P181 (peptide)
peptide: Hexanoyl-HSDAVFTDNYTRLRKQVAAAKYLQSIKNKRYGGPSSGAPPPS
B21: P149 (peptide)
peptide: Hexanoyl-HSDAVFTDNYTRLRKQVAAIKYLQSIKNKRYGGPSSGAPPPS
B22: P165 (peptide)
peptide: Hexanoyl-HSDAVFTEEYTRLQKQVAAKQYLQSIKNKRYGGPSSGAPPPS
B23: P131 (peptide)
peptide: Hexanoyl-HSDAVFTDNYTRLRKQVAAKKTLQSIKNKRYGGPSSGAPPPS
B24: P133 (peptide)
peptide: Hexanoyl-HSDAVFTDNYTRLRKQVAAKKILQSIKNKRYGGPSSGAPPPS
B25: P134 (peptide)
peptide: Hexanoyl-HSDAVFTDNYTRLRKQVAAKKVLQSIKNKRYGGPSSGAPPPS
B26: P180 (peptide)
peptide: Hexanoyl-HSDAVFTDNYTRLRFQVAAKKYLQSIKNKRYGGPSSGAPPPS
B27: P113 (peptide)
peptide: Hexanoyl-HSDAVFTDNYTRLRKQVAAKKYLQIIKNKRYGGPSSGAPPPS
B28: P171 (peptide)
peptide: Hexanoyl-HSDAVFTDNYTRLKKQVAAKKYLQSIKNKRYGGPSSGAPPPS
B29: P112 (peptide)
peptide: Hexanoyl-HSDAVFTDNYTRLRKQVAAKKYLQFIKNKRYGGPSSGAPPPS
B30: P183 (peptide)
peptide: Hexanoyl-HSDAVFTDNYTRLRKQVAAKQYLQSIKNKRYGGPSSGAPPPS
B31: P125 (peptide)
peptide: Hexanoyl-HSDAVFTDNYTRLRKQVAAKKYLQNIKNKRYGGPSSGAPPPS
B32: P164 (peptide)
peptide: Hexanoyl-HSDAVFTDNYTRLLAKLALQKYLQSIKNKRYGGPSSGAPPPC
B33: P163 (peptide)
peptide: Hexanoyl-HSDAVFTYNYTRLRKQVAAKKYLQSIKNKRYGGPSSGAPPPS
B34: P173 (peptide)
peptide: Hexanoyl-HSDAVFTDNYTRLAKQVAAKKYLQSIKNKRYGGPSSGAPPPS
B35: P179 (peptide)
peptide: Hexanoyl-HSDAVFTDNYTRLRLQVAAKKYLQSIKNKRYGGPSSGAPPPS
B36: P127 (peptide)
peptide: Hexanoyl-HSDAVFTDNYTRLRKQVAAKKYLQYIKNKRYGGPSSGAPPPS
B37: P148 (peptide)
peptide: Hexanoyl-HSDAVFTDNYTRLRKQVAAFKYLQSIKNKRYGGPSSGAPPPS
B38: P158 (peptide)
peptide: Hexanoyl-HSDAVFTANYTRLRKQVAAKKYLQSIKNKRYGGPSSGAPPPS
B39: P155 (peptide)
peptide: Hexanoyl-HSDAVFTDNYTRLRKQVALKKYLQSIKNKRYGGPSSGAPPPS
B40: P161 (peptide)
peptide: Hexanoyl-HSDAVFTLNYTRLRKQVAAKKYLQSIKNKRYGGPSSGAPPPS
B41: P130 (peptide)
peptide: Hexanoyl-HSDAVFTDNYTRLRKQVAAKKFLQSIKNKRYGGPSSGAPPPS
B42: P114 (peptide)
peptide: Hexanoyl-HSDAVFTDNYTRLRKQVAAKKYLQLIKNKRYGGPSSGAPPPS
B43: P159 (peptide)
peptide: Hexanoyl-HSDAVFTENYTRLRKQVAAKKYLQSIKNKRYGGPSSGAPPPS
B44: P182 (peptide)
peptide: Hexanoyl-HSDAVFTDNYTRLRKQVAAKRYLQSIKNKRYGGPSSGAPPPS
B45: P116 (peptide)
peptide: Hexanoyl-HSDAVFTDNYTRLRKQVAAKKYLQVIKNKRYGGPSSGAPPPS

Where no end group is shown, it is not given here. The star is where a group is joined. Hexanoyl = CCCCCC(=O)*

For the assay, the target named is T1, human VPAC2 receptor. Description: cell-based or functional assay.
Take B1: the “EC50 cAMP, Alpha Screen” value is 0.34 nM.

Take B2: the “EC50 cAMP, Alpha Screen” value was determined as 0.09 nM. Turning to B3, the “EC50 cAMP, Alpha Screen” value stood at 0.28 nM.

Consider B4, for which the “EC50 cAMP, Alpha Screen” value is 3.1 nM. Take B5: the “EC50 cAMP, Alpha Screen” value was 0.07 nM. In the case of B6 it was 11.1 nM; in that of B7, 0.72 nM; in that of B8, 13.2 nM. B9: the “EC50 cAMP, Alpha Screen” value came out at 0.15 nM.

Turning to B10, the “EC50 cAMP, Alpha Screen” value came to 0.26 nM. Turning to B11, the “EC50 cAMP, Alpha Screen” value came out at 0.2 nM.

B12: the “EC50 cAMP, Alpha Screen” value stood at 0.45 nM. In the case of B13, the “EC50 cAMP, Alpha Screen” value was 0.2 nM. Regarding B14, the “EC50 cAMP, Alpha Screen” value amounted to 0.68 nM. Turning to B15, the “EC50 cAMP, Alpha Screen” value is 0.17 nM. For B16, the “EC50 cAMP, Alpha Screen” value stood at 0.13 nM.

Take B17: the “EC50 cAMP, Alpha Screen” value came to 0.17 nM. B18: the “EC50 cAMP, Alpha Screen” value worked out at 0.49 nM. In the case of B19, the “EC50 cAMP, Alpha Screen” value stood at 0.11 nM. The figure for B20 is 0.13 nM; for B21 it is 0.41 nM. Consider B22, for which the “EC50 cAMP, Alpha Screen” value amounted to 0.94 nM. Regarding B23, the “EC50 cAMP, Alpha Screen” value was 22.3 nM. The figure for B24 is 2.7 nM; for B25 it is 5.47 nM. As to B26, the “EC50 cAMP, Alpha Screen” value was 1.04 nM.

Regarding B27, the “EC50 cAMP, Alpha Screen” value is 0.26 nM.

For B28, the “EC50 cAMP, Alpha Screen” value came out at 0.82 nM.

As to B29, the “EC50 cAMP, Alpha Screen” value turned out to be 0.16 nM. B30: the “EC50 cAMP, Alpha Screen” value is 0.14 nM. As for B31, the “EC50 cAMP, Alpha Screen” value was found to be 0.14 nM. For B32, the “EC50 cAMP, Alpha Screen” value was found to be 0.11 nM. In the case of B33 it was 5.53 nM; in that of B34, 0.25 nM.

On to B35, for which the “EC50 cAMP, Alpha Screen” value was determined as 0.24 nM. In the case of B36 it was 0.22 nM; in that of B37, 0.1 nM.

As for B38, the “EC50 cAMP, Alpha Screen” value was found to be 0.11 nM. B39: the “EC50 cAMP, Alpha Screen” value was determined as 0.24 nM. For the molecule B40, the “EC50 cAMP, Alpha Screen” value is 4 nM. As to B41, the “EC50 cAMP, Alpha Screen” value is 0.77 nM.

As to B42, the “EC50 cAMP, Alpha Screen” value was 0.14 nM. On to B43, for which the “EC50 cAMP, Alpha Screen” value was determined as 0.17 nM.

Regarding B44, the “EC50 cAMP, Alpha Screen” value worked out at 0.29 nM. For B45, the “EC50 cAMP, Alpha Screen” value stood at 0.12 nM.

Source of the values: US20080026996A1, “Selective Vpac2 Receptor Reptide Agonists” (ELI LILLY AND COMPANY, priority 2004, published 2008).
